The source of these data is publication PMC10388305, “Synthesis and Evaluation of a Monomethyl Auristatin E—Integrin αvβ6 Binding Peptide–Drug Conjugate for Tumor Targeted Drug Delivery” (Journal of Medicinal Chemistry, 2023).

Read-outs that look alike come from different tables or passages of the source. Bounds are passed on as bounds.

For series [1], the system named is cells expressing the integrin αvβ6. Put plainly: Internalization assay. It is filed as cell-based. Particulars: all cells expressing the integrin αvβ6; acidic wash pH 2.5; γ-counter. The source says: Binding to cells with minimal to no expression of integrin αvβ6 was low at 4.4 ± 0.1% to DX3puro cells and 7.9 ± 0.4% to pancreatic MIA PaCa-2 cells. Binding of [^64Cu]PDC-1 to DX3puroβ6 (+) and BxPC-3 (+) was reduced by adding increasing amounts of DOTA-PDC-1, illustrating that the αvβ6-selective uptake could be blocked (Figure S3). Internalization of [^64Cu]-PDC-1 into cells was high with >50% of the bound radioactivity internalized for all cells expressing the integrin αvβ6. In comparison, cell binding of [^64Cu]2 to DX3puroβ6 (+) cells was 58.8 ± 2.3, and 3.3 ± 0.4% to the DX3puro (−) cells.
Cell binding and internalization assay. Binding and internalization were determined as previously described. […] The fraction of bound radioactivity was determined with a γ-counter (by measuring cell pellet and combined supernatants). To determine the fraction of internalized radioactivity, the cells were re-pelleted, and re-suspended in acidic wash buffer (0.2 M sodium acetate, 0.5 M sodium chloride, pH = 2.5, 300 μL, 4 °C, 5 min) to release surface bound activity, followed by a wash with PBS (300 μL). The internalized fraction was determined with a γ-counter (cell pellet vs. radioactivity released into supernatant). A Wizard 1470 or Wizard 2 2470 automatic γ-counter (Perkin-Elmer, Waltham, MA) was used to measure radioactivity samples. […]

Series [2] in a line: Blocking biodistribution, BxPC-3 model. The following applies: female, athymic nude, mouse, iv, total radioactivity, 4 h p.i., DOTA-2 (50 mg/kg, 205 nmol) i.v. 10 min prior, γ-counter, mean ± SD, n = 2. It is filed as in vivo, mice. As to the method: Aliquots of the formulated [^64Cu]PDC-1 in isotonic 0.9% saline (4.81–5.74 MBq, 1.7–2.1 μg, 0.26–0.31 nmol, 100 μL, pH 7.2) were injected i.v. as described above. Following the conscious uptake period, the mice were anesthetized (5% isoflurane), euthanized, and dissected (n ≥ 3/model/time point [4, 24, and 48 h]; the 48 h time point also included the imaging animals sacrificed after the PET scans). Tissues were collected, washed, weighed, and radioactivity measured in a γ-counter. Calibrated, decay-corrected radioactivity was expressed as the percentage of injected dose per gram of tissue (% ID/g). Data are reported as mean ± SD. The mean weights and standard deviation of the DX3puroβ6/DX3puro paired tumor model biodistribution mice were 24.3 ± 1.4 g at 4 h, 28.2 ± 2.9 g at 24 h, and 27.7 ± 2.6 g at 48 h. The mean weights and standard deviation of the BxPC-3 tumor model biodistribution mice were 25.1 ± 1.9 g at 4 h, 27.0 ± 1.1 g at 24 h and 27.1 ± 3.2 g at 48 h. For in vivo blocking studies, DOTA-2 (50 mg/kg, 205 nmol, 1.4 mg in 100 μL 0.9% saline) was injected i.v. into two animals/tumor model 10 min prior to [^64Cu]PDC-1. The animals were sacrificed after 4 h, tissues collected, washed, weighed, and radioactivity measured in a γ-counter. The mean weights and standard deviation for the blocking mice were 24.6 ± 0 and 27.9 ± 0.3 g for the DX3puroβ6/DX3puro paired and BxPC-3 tumor models, respectively.
Blocking biodistribution data of [64Cu]PDC-1 in paired DX3puroβ6/DX3puro and BxPC-3 tumor models.
Tumor Model DX3puroβ6/DX3puro BxPC-3
Table S6. Blocking biodistribution data of [ 64Cu]PDC-1 in paired DX3puroβ6/DX3puro and BxPC-3 tumor
models. Tissue uptake is expressed as the mean of the percentage of injected dose per gram of tissue ±
SD (n = 2/model, n/a = not applicable. P = 0.53 for DX3puroβ6 vs. DX3puro; P = 0.52 for BxPC-3 vs.

Turning to `CC[C@H](C)[C@@H]([C@@H](CC(=O)N1CCC[C@H]1[C@H](OC)[C@@H](C)C(=O)N[C@H](C)[C@@H](O)c1ccccc1)OC)N(C)C(=O)[C@@H](NC(=O)[C@H](C(C)C)N(C)C(=O)OCc1ccc(NC(=O)[C@H](CCCNC(N)=O)NC(=O)[C@@H](NC(=O)CCOCCOCCNC(=O)CCN2C(=O)CC(SC[C@H](NC(=O)CN3CCN(CC(=O)O)CCN(CC(=O)O)CCN(CC(=O)O)CC3)C(=O)NCCOCCOCCOCCOCCOCCOCCOCCOCCOCCOCCOCCOCCOCCOCCOCCOCCOCCOCCOCCOCCOCCOCCOCCOCCOCCOCCOCCOCCC(=O)N[C@@H](CC(N)=O)C(=O)N[C@@H](C)C(=O)N[C@H](C(=O)N3CCC[C@H]3C(=O)N[C@@H](CC(N)=O)C(=O)N[C@@H](CC(C)C)C(=O)N[C@@H](CCCNC(=N)N)C(=O)NCC(=O)N[C@@H](CC(=O)O)C(=O)N[C@@H](CC(C)C)C(=O)N[C@@H](CCC(N)=O)C(=O)N[C@H](C(=O)N[C@@H](CC(C)C)C(=O)N[C@@H](C)C(=O)N[C@@H](CCC(N)=O)C(=O)N[C@@H](CCCNC(=N)N)C(=O)N[C@H](C(=O)N[C@@H](C)C(=O)N[C@@H](CCCNC(=N)N)C(=O)N[C@H](C(=O)NCCOCCOCCOCCOCCOCCOCCOCCOCCOCCOCCOCCOCCOCCOCCOCCOCCOCCOCCOCCOCCOCCOCCOCCOCCOCCOCCOCCOCCC(N)=O)[C@@H](C)O)C(C)C)C(C)C)C(C)C)C2=O)C(C)C)cc1)C(C)C` (some centres unmarked) [[^64Cu]PDC-1, metal not drawn], the “Internalization, fraction of the bound radioactivity internalized” value in series [1] is given as above 50%. Also, the tissue uptake at 4 h in series [2] (BxPC-3 (αvβ6 +) tumor, read-out: Tumor (αvβ6 +) BxPC-3 uptake, blocked) is 0.61 ± 0.05 %ID/g; in series [2] (blood, read-out: Blood uptake, blocked) it was 0.1 ± 0.02 %ID/g; in series [2] (bone, read-out: Bone uptake, blocked), 0.14 ± 0.03 %ID/g; in series [2] (brain, read-out: Brain uptake, blocked), 0.01 ± 0.01 %ID/g; in series [2] (gall bladder, read-out: Gall Bladder uptake, blocked), 0.94 ± 0.35 %ID/g; in series [2] (heart, read-out: Heart uptake, blocked), 0.21 ± 0.06 %ID/g. The tissue uptake at 4 h is 25.7 ± 2.55 %ID/g in series [2] (kidney, read-out: Kidney uptake, blocked); 0.47 ± 0.08 %ID/g in series [2] (large intestines, read-out: Large Intestines uptake, blocked); 1.01 ± 0.16 %ID/g in series [2] (liver, read-out: Liver uptake, blocked); 0.51 ± 0.16 %ID/g in series [2] (lung, read-out: Lung uptake, blocked); 0.07 ± 0.01 %ID/g in series [2] (muscle, read-out: Muscle uptake, blocked); 0.12 ± 0.01 %ID/g in series [2] (pancreas, read-out: Pancreas uptake, blocked). The tissue uptake at 4 h in series [2] (skin, read-out: Skin uptake, blocked) was determined as 0.31 ± 0.02 %ID/g; in series [2] (small intestines, read-out: Small Intestines uptake, blocked) it was 0.51 ± 0.09 %ID/g; in series [2] (spleen, read-out: Spleen uptake, blocked), 0.22 ± 0.03 %ID/g; in series [2] (stomach, read-out: Stomach uptake, blocked), 0.38 ± 0.04 %ID/g.
